Assay results published in article PMC5220088.
Where two headings read alike, the source gives them in different places. Each block holds one binder with its values, some of them ahead of it. Where no end group is shown, it is not given here. [ ]: non-standard residue; d: D form. The star is where a group is joined. EDDnp = O=[N+]([O-])c1ccc(NCCN*)c([N+](=O)[O-])c1; 2Abz = Nc1ccccc1C(=O)O

Key:
[1] = biological target: protease isolated from Eupenicillium javanicum (metalloprotease, 30 kDa) (Eupenicillium javanicum)
[2] = biological target: protease isolated from Eupenicillium javanicum (metalloprotease, 30 kDa) (Eupenicillium javanicum); remark: listed apart in the source

Binder: [2Abz]KLRSYKQ-EDDnp [Abz-KLRSYKQ-EDDnp]
KM of the hydrolysis of the FRET peptide by the purified protease (Michaelis-Menten, pH 6.0, 45°C) [1]: 0.003 mM

Binder: [2Abz]KFRSSKQ-EDDnp [Abz-KFRSSKQ-EDDnp]
KM of the hydrolysis of the FRET peptide by the purified protease (Michaelis-Menten, pH 6.0, 45°C) [2]: 0.012 mM

Binder: [2Abz]KLRYSKQ-EDDnp [Abz-KLRYSKQ-EDDnp]
KM of the hydrolysis of the FRET peptide by the purified protease (Michaelis-Menten, pH 6.0, 45°C) [1]: 0.007 mM

Binder: [2Abz]KLQSSKQ-EDDnp [Abz-KLQSSKQ-EDDnp]
KM of the hydrolysis of the FRET peptide by the purified protease (Michaelis-Menten, pH 6.0, 45°C) [2]: 0.004 mM

The remaining lines, values ahead:

KM of the hydrolysis of the FRET peptide by the purified protease (Michaelis-Menten, pH 6.0, 45°C) [1]: 0.003 mM
Binder: [2Abz]KLRSIKQ-EDDnp [Abz-KLRSIKQ-EDDnp]

KM of the hydrolysis of the FRET peptide by the purified protease (Michaelis-Menten, pH 6.0, 45°C) [2]: 0.01 mM
Binder: [2Abz]VLRSSKQ-EDDnp [Abz-VLRSSKQ-EDDnp]
